T1: human FcγRIIa H extracellular domain (human, UniProt P12318 34-217)
T1 construct: extracellular domain; also called hFcγR IIa H; FcγRIIa allotype H131
T1 sequence (looked up): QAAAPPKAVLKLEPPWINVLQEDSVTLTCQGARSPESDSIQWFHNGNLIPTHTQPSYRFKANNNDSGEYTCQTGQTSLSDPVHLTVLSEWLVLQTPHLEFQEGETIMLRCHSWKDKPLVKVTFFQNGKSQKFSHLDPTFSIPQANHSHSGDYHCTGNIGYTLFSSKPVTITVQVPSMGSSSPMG

T2: human FcγRIIb extracellular domain (human, UniProt P31994 43-217)
T2 construct: extracellular domain; also called hFcγR IIb
T2 sequence (looked up): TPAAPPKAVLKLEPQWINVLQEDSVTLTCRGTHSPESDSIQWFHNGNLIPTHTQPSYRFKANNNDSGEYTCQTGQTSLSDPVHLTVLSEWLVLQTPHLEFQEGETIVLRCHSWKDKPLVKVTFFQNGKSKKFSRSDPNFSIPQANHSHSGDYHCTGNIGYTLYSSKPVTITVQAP

T3: human FcγRIIa R extracellular domain (human, UniProt P12318 34-217)
T3 construct: extracellular domain; also called hFcγR IIa R; FcγRIIa allotype R131
T3 sequence (looked up): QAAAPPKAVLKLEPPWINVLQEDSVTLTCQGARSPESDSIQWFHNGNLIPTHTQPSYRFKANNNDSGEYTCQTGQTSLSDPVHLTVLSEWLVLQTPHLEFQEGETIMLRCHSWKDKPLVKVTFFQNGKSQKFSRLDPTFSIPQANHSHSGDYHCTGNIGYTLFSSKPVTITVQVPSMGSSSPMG

T4: hFcγRIIaH on Jurkat effector cells (human, UniProt P12318 34-317)
T4 sequence (looked up): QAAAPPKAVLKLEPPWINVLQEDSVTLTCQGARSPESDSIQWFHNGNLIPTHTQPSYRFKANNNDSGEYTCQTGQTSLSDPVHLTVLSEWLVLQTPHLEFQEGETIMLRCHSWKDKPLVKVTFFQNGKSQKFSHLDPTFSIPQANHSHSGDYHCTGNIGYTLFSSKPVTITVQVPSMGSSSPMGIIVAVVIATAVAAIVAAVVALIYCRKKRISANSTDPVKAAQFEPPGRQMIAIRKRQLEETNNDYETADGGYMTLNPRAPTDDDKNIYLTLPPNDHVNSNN


How the values were obtained:
[1] = biological target: T1, human FcγRIIa H extracellular domain; experiment: SPR; KD of G1d divided by KD of this antibody
Experimental: (§1) The extracellular domains of FcγRs were produced by the method described in WO2014104165. The interaction between the produced antibodies and human FcγRs was analyzed using Biacore 8K+ by the method below. For the running buffer, 50 mM Na-Phosphate, 150 mM NaCl, and 0.05% Tween20 (pH 7.4) was used, and measurement was performed at 25° C. The sensor chip used was a Series S SA chip (GE Healthcare) onto which CaptureSelect Human Fab-kappa Kinetics Biotin Conjugate (Thermo Fisher Scientific) was immobilized. An antibody of interest was captured onto this chip, and each FcγR diluted with the running buffer was allowed to interact with it. The chip was regenerated using 10 mM Glycine-HCl (pH 1.5), and repeatedly used to capture antibodies and perform measurement. The dissociation constants KD (mol/L) of each antibody for FcγRs were calculated using Biacore Insight Evaluation Software, with a steady state affinity model for the dissociation constant for FcγRIIb and a 1:1 Langmuir binding model for the dissociation constants for the other FcγRs (Table 2).

[2] = biological target: T5, human FcγRIa extracellular domain (human, UniProt P12314 16-292); experiment: SPR; KD of G1d divided by KD of this antibody
T5 construct: extracellular domain; also called hFcγR Ia
T5 sequence (P12314 16-292): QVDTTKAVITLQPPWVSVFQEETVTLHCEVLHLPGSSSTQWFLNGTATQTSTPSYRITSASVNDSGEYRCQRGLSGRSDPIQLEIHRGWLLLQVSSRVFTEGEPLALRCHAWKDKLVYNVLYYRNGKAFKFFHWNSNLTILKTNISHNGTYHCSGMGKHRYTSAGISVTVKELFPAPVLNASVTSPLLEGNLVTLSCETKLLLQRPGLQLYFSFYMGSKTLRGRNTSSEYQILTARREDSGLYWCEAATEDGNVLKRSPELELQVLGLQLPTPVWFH
Experimental: as §1

[3] = biological target: T2, human FcγRIIb extracellular domain; experiment: SPR; KD of G1d divided by KD of this antibody
Experimental: as §1

[4] = biological target: T3, human FcγRIIa R extracellular domain; experiment: SPR; KD of G1d divided by KD of this antibody
Experimental: as §1

[5] = biological target: T6, human FcγRIIIa F extracellular domain (human, UniProt P08637 17-208); experiment: SPR; KD of G1d divided by KD of this antibody
T6 construct: extracellular domain; also called hFcγR IIIa F; FcγRIIIa allotype F158
T6 sequence (P08637 17-208): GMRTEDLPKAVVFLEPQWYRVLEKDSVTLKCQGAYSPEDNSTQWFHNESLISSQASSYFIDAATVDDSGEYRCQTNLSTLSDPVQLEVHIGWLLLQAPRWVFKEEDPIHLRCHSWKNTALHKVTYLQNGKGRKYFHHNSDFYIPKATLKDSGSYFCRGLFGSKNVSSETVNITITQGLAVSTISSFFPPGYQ
Experimental: as §1

[6] = biological target: T1, human FcγRIIa H extracellular domain; experiment: SPR; KD for hFcγRIIb divided by KD for this FcγR
Experimental: as §1

[7] = biological target: T3, human FcγRIIa R extracellular domain; experiment: SPR; KD for hFcγRIIb divided by KD for this FcγR
Experimental: as §1

[8] = biological target: T6, human FcγRIIIa F extracellular domain; experiment: SPR; KD for hFcγRIIb divided by KD for this FcγR
Experimental: as §1

[9] = biological target: hFcγRIIIaV on Jurkat effector cells (human, UniProt P08637 17-254); experiment: cell-based or functional assay
hFcγRIIIaV on Jurkat effector cells, sequence (P08637 17-254, form in doubt): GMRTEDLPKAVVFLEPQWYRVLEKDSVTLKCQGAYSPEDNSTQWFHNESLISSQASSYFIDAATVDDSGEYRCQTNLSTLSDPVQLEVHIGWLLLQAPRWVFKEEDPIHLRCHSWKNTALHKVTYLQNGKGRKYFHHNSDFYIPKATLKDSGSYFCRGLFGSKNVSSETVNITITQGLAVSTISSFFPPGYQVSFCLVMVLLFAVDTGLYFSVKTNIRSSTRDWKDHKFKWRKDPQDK

[10] = biological target: T7, human FcγRIIIa V extracellular domain (human, UniProt P08637 17-208); experiment: SPR; KD of G1d divided by KD of this antibody
T7 construct: extracellular domain; also called hFcγR IIIa V; FcγRIIIa allotype V158
T7 sequence (P08637 17-208 F176V): as the sequence (P08637 17-208) above, with F160V counted along it
Experimental: as §1

[11] = biological target: T7, human FcγRIIIa V extracellular domain; experiment: SPR; KD for hFcγRIIb divided by KD for this FcγR
Experimental: as §1

[12] = biological target: T4, hFcγRIIaH on Jurkat effector cells; experiment: cell-based or functional assay

Relative value to KD between G1d and hFcgRs [1]	Relative value to KD between G1d and hFcgRs [2]	Relative value to KD between G1d and hFcgRs [3]	Relative value to KD between G1d and hFcgRs [4]	Relative value to KD between G1d and hFcgRs [5]	A/I ratio (KD for FcγRIIb divided by KD for each FcγR) [6]	A/I ratio (KD for FcγRIIb divided by KD for each FcγR) [7]	A/I ratio (KD for FcγRIIb divided by KD for each FcγR) [8]	EC50 of reporter gene induction (ADCC Reporter Bioassay, Hepa1-6/hEREG target cells) [9]	Relative value to KD between G1d and hFcgRs [10]	A/I ratio (KD for FcγRIIb divided by KD for each FcγR) [11]	EC50 of reporter gene induction (ADCP Reporter Bioassay, Hepa1-6/hEREG target cells) [12]	Binder
1 times	1 times	1 times	1 times	1 times	8.9 ratio	6.1 ratio	3.4 ratio	46.3 ng/mL	–	–	–	EGL-G1d (H240-G1d/L73-k0) (antibody, human IgG1, kappa, Anti-human Epiregulin antibody with a human IgG1 constant region lacking C-terminal Gly-Lys (G1d); also called Gld; anti-hEREG control antibody) heavy: not shown light: DIQMTQSPSSLSASVGDRVTITCRASQDIHKYIAWYQQKPGQAPRLLIQYTSTLQPGVPSRFSGSGSGTDYTFTISSLQPEDIATYYCLQYEQLRTFGGGTKVEIKRTVAAPSVFIFPPSDEQLKSGTASVVCLLNNFYPREAKVQWKVDNALQSGNSQESVTEQDSKDSTYSLSSTLTLSKADYEKHKVYACEVTHQGLSSPVTKSFNRGEC
1 times	54.3 times	3.9 times	1.8 times	113 times	2.2 ratio	2.8 ratio	98.7 ratio	1.78 ng/mL	36.8 times	266 ratio	–	EGL-SDALIE (H240-Kn032/L73-k0//H240-H1032/L73-k0) (antibody, human IgG1, kappa, S239D/A330L/I332E in both heavy chains; Kn032 with Y349C/T366W, H1032 with D356C/T366S/L368A/Y407V) heavy 1: QDQLVQSGAEVKKPGASVKVSCKASGFNIKDTYIQWVRQAPGQGLEWMGRIDPLRKQTKYREKFEGRVTITADTSTNTAYMELSSLRSEDTAVYYCVRSGREFDYWGQGTLVTVSSASTKGPSVFPLAPSSKSTSGGTAALGCLVKDYFPEPVTVSWNSGALTSGVHTFPAVLQSSGLYSLSSVVTVPSSSLGTQTYICNVNHKPSNTKVDKKVEPKSCDKTHTCPPCPAPELLGGPDVFLFPPKPKDTLMISRTPEVTCVVVDVSHEDPEVKFNWYVDGVEVHNAKTKPREEQYNSTYRVVSVLTVLHQDWLNGKEYKCKVSNKALPLPEEKTISKAKGQPREPQVCTLPPSRDELTKNQVSLWCLVKGFYPSDIAVEWESNGQPENNYKTTPPVLDSDGSFFLYSKLTVDKSRWQQGNVFSCSVMHEALHNHYTQKSLSLSP heavy 2: QDQLVQSGAEVKKPGASVKVSCKASGFNIKDTYIQWVRQAPGQGLEWMGRIDPLRKQTKYREKFEGRVTITADTSTNTAYMELSSLRSEDTAVYYCVRSGREFDYWGQGTLVTVSSASTKGPSVFPLAPSSKSTSGGTAALGCLVKDYFPEPVTVSWNSGALTSGVHTFPAVLQSSGLYSLSSVVTVPSSSLGTQTYICNVNHKPSNTKVDKKVEPKSCDKTHTCPPCPAPELLGGPDVFLFPPKPKDTLMISRTPEVTCVVVDVSHEDPEVKFNWYVDGVEVHNAKTKPREEQYNSTYRVVSVLTVLHQDWLNGKEYKCKVSNKALPLPEEKTISKAKGQPREPQVYTLPPSRCELTKNQVSLSCAVKGFYPSDIAVEWESNGQPENNYKTTPPVLDSDGSFFLVSKLTVDKSRWQQGNVFSCSVMHEALHNHYTQKSLSLSP light: DIQMTQSPSSLSASVGDRVTITCRASQDIHKYIAWYQQKPGQAPRLLIQYTSTLQPGVPSRFSGSGSGTDYTFTISSLQPEDIATYYCLQYEQLRTFGGGTKVEIKRTVAAPSVFIFPPSDEQLKSGTASVVCLLNNFYPREAKVQWKVDNALQSGNSQESVTEQDSKDSTYSLSSTLTLSKADYEKHKVYACEVTHQGLSSPVTKSFNRGEC
6.9 times	21.3 times	3.8 times	10.3 times	99.1 times	16.5 ratio	16.5 ratio	89.3 ratio	2.08 ng/mL	–	–	0.0324 µg/mL	EGL-GASDALIE (H240-GASDALIE/L73-k0) (antibody, human IgG1, kappa) heavy: QDQLVQSGAEVKKPGASVKVSCKASGFNIKDTYIQWVRQAPGQGLEWMGRIDPLRKQTKYREKFEGRVTITADTSTNTAYMELSSLRSEDTAVYYCVRSGREFDYWGQGTLVTVSSASTKGPSVFPLAPSSKSTSGGTAALGCLVKDYFPEPVTVSWNSGALTSGVHTFPAVLQSSGLYSLSSVVTVPSSSLGTQTYICNVNHKPSNTKVDKKVEPKSCDKTHTCPPCPAPELLAGPDVFLFPPKPKDTLMISRTPEVTCVVVDVSHEDPEVKFNWYVDGVEVHNAKTKPREEQYNSTYRVVSVLTVLHQDWLNGKEYKCKVSNKALPLPEEKTISKAKGQPREPQVYTLPPSRDELTKNQVSLTCLVKGFYPSDIAVEWESNGQPENNYKTTPPVLDSDGSFFLYSKLTVDKSRWQQGNVFSCSVMHEALHNHYTQKSLSLSP light: DIQMTQSPSSLSASVGDRVTITCRASQDIHKYIAWYQQKPGQAPRLLIQYTSTLQPGVPSRFSGSGSGTDYTFTISSLQPEDIATYYCLQYEQLRTFGGGTKVEIKRTVAAPSVFIFPPSDEQLKSGTASVVCLLNNFYPREAKVQWKVDNALQSGNSQESVTEQDSKDSTYSLSSTLTLSKADYEKHKVYACEVTHQGLSSPVTKSFNRGEC

Source: patent publication US20240043515A1 (Chugai, published 2024)
